Biological target: mS194 (Spike 194–203 monomer) (Severe acute respiratory syndrome coronavirus 2, UniProt P0DTC2)

fAβ1–42
effect of fAβ on mS194 aggregation: acceleration of mS194 aggregation

fAβ25–35 (GSNKGAIIGLM; Amyloid-beta protein 42 fibrillar; UniProt P05067 696-706, looked up, fragment)
effect of fAβ on mS194 aggregation: acceleration of mS194 aggregation | increase of ThT fluorescence intensity of mS194 versus mS194 alone: 4 fold

Reference: publication PMC12412103, “An Amyloidogenic Fragment of the Spike Protein from SARS-CoV‑2 Virus Stimulates the Aggregation and Toxicity of Parkinson’s Disease Protein Alpha-Synuclein” (ACS Chemical Neuroscience, 2025)
